± gives the standard deviation of the averaged measurements.
Tested on: ATP
Experiment: switch fluorescence ratio, 500 uM ATP over buffer (Cy3 cluster intensity, sum of 5 cycles each) (fold (ratio)); higher = stronger signal-on switching upon ATP binding; sequences stand for … in TCGTCGGCAGCGTCAGATGTGTATAAGAGACAGTTTTTTTTTTTTTTTTTTTTTTTTT…TC
Conditions: aptamer strand: ATP DNA aptamer (quencher-CACCTGGGGGAGTATTGCGGAGGAAGG + anchor), 100 nM annealed; ATP concentration: 500 uM
In short: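 Switching-strand clusters labelled with Cy3 on a modified Illumina MiSeq flow-cell were annealed to 100 nM quencher-labelled ATP aptamer, imaged in selection buffer, and re-imaged after 15 min with 500 uM ATP at 22 °C. This was done over five cycles with NaOH stripping and re-annealing in between. The fluorescence ratio is summed target-cycle over summed buffer-cycle Cy3 intensity per cluster, averaged per switch-domain sequence, excluding clusters outside 100-1000 RFU.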
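Note: ATP exposure 15 min at 22 °C before imaging.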

| Sequence | switch fluorescence ratio |
| --- | --- |
| CGAAATTTGG | 1.03 ± 0.044 |
| CGAACGGGGA | 1.16 ± 0.049 |
| CGAAGAACTA | 1.023 ± 0.0028 |
| CGAAGACCAG | 1.05 ± 0.081 |
| CGAAGCGGGG | 1.08 ± 0.054 |
| CGAAGCTGGT | 1.075 ± 0.0037 |
| CGAAGGGTAA | 1.02 ± 0.028 |
| CGAAGGGTTA | 0.971 ± 0.027 |
| CGAAGTATAG | 1.37 ± 0.038 |
| CGAAGTTTGT | 0.98 ± 0.01 |
| CGAATAGTTG | 1.005 ± 0.0085 |
| CGAATGAGGT | 0.99 ± 0.04 |
| CGAATTCCGG | 1.01 ± 0.084 |
| CGAATTGGTG | 1.03 ± 0.04 |
| CGACAAGAGA | 1.47 ± 0.085 |
| CGACAATGCC | 1.29 ± 0.03 |
| CGACACGCTG | 1.05 ± 0.058 |
| CGACATGGTG | 1.07 ± 0.027 |
| CGACCGGGTA | 1.02 ± 0.023 |
| CGACCTACAG | 1.02 ± 0.02 |
| CGACGTGATG | 1.227 ± 0.0082 |
| CGACGTGCGG | 0.9944 ± 0.0062 |
| CGACGTTCAC | 1.96 ± 0.051 |

| Sequence | switch fluorescence ratio |
| --- | --- |
| CGACTCATAT | 1.52 ± 0.11 |
| CGACTCGAAA | 1.02 ± 0.016 |
| CGACTGAGGT | 1.03 ± 0.029 |
| CGACTGGAAC | 1.207 ± 0.008 |
| CGACTTACGG | 1.11 ± 0.03 |
| CGAGAAATTT | 1.01 ± 0.022 |
| CGAGAAGGGT | 0.997 ± 0.039 |
| CGAGAGTGTT | 0.995 ± 0.026 |
| CGAGATACTC | 1.86 ± 0.17 |
| CGAGATCGAC | 0.97 ± 0.012 |
| CGAGCATAGG | 1.23 ± 0.085 |
| CGAGCGTGTG | 0.9998 ± 0.0047 |
| CGAGCTGGTT | 0.991 ± 0.0027 |
| CGAGCTTGAA | 1.03 ± 0.022 |
| CGAGCTTTGA | 1.034 ± 0.0084 |
| CGAGGAGCAT | 1.01 ± 0.058 |
| CGAGGAGGGA | 0.9686 ± 0.0093 |
| CGAGGATAAA | 0.994 ± 0.027 |
| CGAGGATTTC | 0.9885 ± 0.0094 |
| CGAGGATTTG | 0.994 ± 0.018 |
| CGAGGCCGGG | 1.01 ± 0.015 |
| CGAGGGACCC | 1.01 ± 0.044 |
| CGAGGGAGGC | 1.011 ± 0.0095 |

| Sequence | switch fluorescence ratio |
| --- | --- |
| CGAGGGGCCC | 1.01 ± 0.036 |
| CGAGGGGGCT | 0.99 ± 0.02 |
| CGAGGGGTAC | 1.4 ± 0.0095 |
| CGAGGGTAGA | 1.01 ± 0.03 |
| CGAGGGTCCG | 0.99899 ± 0.00035 |
| CGAGGGTGTA | 0.999 ± 0.0014 |
| CGAGGGTTTG | 0.9968 ± 0.0032 |
| CGAGGTGGGT | 1.01 ± 0.049 |
| CGAGGTTCTG | 0.97 ± 0.039 |
| CGAGTATCTA | 0.993 ± 0.029 |
| CGAGTATTTT | 1.024 ± 0.0022 |
| CGAGTCTCGT | 1.03 ± 0.04 |
| CGAGTGGGGT | 1.01 ± 0.043 |
| CGAGTGTGGG | 1.01 ± 0.021 |
| CGAGTTTTCG | 1 ± 0.03 |
| CGATAACGGG | 1.07 ± 0.077 |
| CGATAATTTA | 1 ± 0.053 |
| CGATAGAAGT | 1.01 ± 0.016 |
| CGATAGGTTT | 1 ± 0.019 |
| CGATATCTAC | 1.06 ± 0.016 |
| CGATATGGTT | 1 ± 0.025 |
| CGATCGGCTG | 0.993 ± 0.019 |
| CGATCGGTGG | 1.01 ± 0.058 |

| Sequence | switch fluorescence ratio |
| --- | --- |
| CGATCTTGTG | 0.988 ± 0.01 |
| CGATGACATG | 0.9877 ± 0.0082 |
| CGATGATTGT | 1.03 ± 0.059 |
| CGATGCGGGG | 1.011 ± 0.0095 |
| CGATGCTCCG | 0.932 ± 0.024 |
| CGATGCTCTG | 1.01 ± 0.063 |
| CGATGCTGGT | 1.02 ± 0.053 |
| CGATGGAATC | 1.69 ± 0.042 |
| CGATGGAGAG | 1.0297 ± 0.00016 |
| CGATGGCGAC | 1.016 ± 0.0051 |
| CGATGGGAGG | 1.06 ± 0.073 |
| CGATGGGATT | 1.056 ± 0.0043 |
| CGATGGGGGA | 1.02 ± 0.018 |
| CGATGGGGGC | 0.957 ± 0.068 |
| CGATGGGTAA | 1 ± 0.033 |
| CGATGGTACG | 0.946 ± 0.05 |
| CGATGGTGAA | 1.02 ± 0.035 |
| CGATGTGTGG | 0.986 ± 0.015 |
| CGATTAGTCT | 0.9951 ± 0.0021 |
| CGATTCGAGT | 0.967 ± 0.016 |
| CGATTCGTCT | 1.05 ± 0.05 |
| CGATTGAATC | 0.991 ± 0.021 |
| CGATTGATCA | 1.004 ± 0.0075 |

| Sequence | switch fluorescence ratio |
| --- | --- |
| CGATTTTTAG | 0.98 ± 0.032 |
| CGATTTTTGT | 0.982 ± 0.02 |
| CGCAAAAGGG | 1.54 ± 0.41 |
| CGCAAAGATT | 1.06 ± 0.024 |
| CGCAAGTATG | 1.26 ± 0.036 |
| CGCACCACGA | 1.208 ± 0.0072 |
| CGCAGATTCG | 1.01 ± 0.024 |
| CGCAGGATGG | 1.05 ± 0.05 |
| CGCAGGGAGT | 1.041 ± 0.01 |
| CGCAGGGTTC | 1.13 ± 0.12 |
| CGCATATGGC | 2.459 ± 0.016 |
| CGCATCCCGC | 1.37 ± 0.024 |
| CGCATCGCGT | 1.02 ± 0.015 |
| CGCATCGGTC | 1.16 ± 0.049 |
| CGCATGATAG | 1.24 ± 0.036 |
| CGCATGTCTC | 1.81 ± 0.11 |
| CGCATTTTGC | 1.19 ± 0.15 |
| CGCCATGGCC | 0.9924 ± 0.0066 |
| CGCCATGGGT | 0.9915 ± 0.0027 |
| CGCCATTTTT | 0.9822 ± 0.0022 |
| CGCCCCAGGA | 1.85 ± 1.1 |
| CGCCCGGAAT | 1.97 ± 0.3 |
| CGCCCGGTAA | 1.13 ± 0.043 |

| Sequence | switch fluorescence ratio |
| --- | --- |
| CGCCCGTTGT | 1.01 ± 0.013 |
| CGCCCTTGGG | 0.992 ± 0.024 |
| CGCCGACGGC | 1.01 ± 0.018 |
| CGCCGGAGGA | 0.9697 ± 0.0067 |
| CGCCGGCTTT | 1.019 ± 0.0085 |
| CGCCGGGTCC | 1.05 ± 0.02 |
| CGCCTAAACG | 1.04 ± 0.042 |
| CGCCTCGTAC | 1.9 ± 0.062 |
| CGCCTGGGGT | 1.64 ± 0.92 |
| CGCGAAGGGT | 1.01 ± 0.026 |
| CGCGACCATT | 0.967 ± 0.051 |
| CGCGAGAGTT | 1.02 ± 0.0018 |
| CGCGAGCTTT | 1.015 ± 0.0032 |
| CGCGAGGATG | 1.022 ± 0.0099 |
| CGCGATTTTA | 1.04 ± 0.019 |
| CGCGCGGGTG | 1.121 ± 0.011 |
| CGCGCTGACA | 1.009 ± 0.0057 |
| CGCGGAGCGC | 1.17 ± 0.15 |
| CGCGGAGTGA | 1.002 ± 0.01 |
| CGCGGATGGG | 1.05 ± 0.05 |
| CGCGGCGGGT | 1.02 ± 0.034 |
| CGCGGGAGAG | 1.02 ± 0.04 |
| CGCGGGCGGA | 1.021 ± 0.0044 |

| Sequence | switch fluorescence ratio |
| --- | --- |
| CGCGGGGCGC | 1.03 ± 0.028 |
| CGCGGGGCGG | 1.02 ± 0.029 |
| CGCGGGGTGC | 1.06 ± 0.097 |
| CGCGGGTATG | 1.05 ± 0.026 |
| CGCGGTAGCG | 0.972 ± 0.041 |
| CGCGGTCAAC | 1.35 ± 0.2 |
| CGCGGTGCTC | 3.17 ± 0.43 |
| CGCGTAAAAT | 1.04 ± 0.035 |
| CGCGTATGTT | 0.985 ± 0.026 |
| CGCGTCTCCC | 3.58 ± 0.38 |
| CGCGTTTTTG | 1.01 ± 0.014 |
| CGCTACGTGG | 0.99 ± 0.028 |
| CGCTAGGAAA | 1.006 ± 0.0076 |
| CGCTAGGGAC | 1.314 ± 0.003 |
| CGCTATTCGG | 1.04 ± 0.043 |
| CGCTATTTTT | 1.02 ± 0.02 |
| CGCTCATCTG | 0.968 ± 0.052 |
| CGCTCTTGGA | 0.976 ± 0.031 |
| CGCTGACAAG | 0.9916 ± 0.0099 |
